Test results taken from patent US20140199325A1.

Molecular target: fibronectin (FN)
Test: solid phase ELISA, HEK293T/17 lysate on FN-coated wells, detected with Cub7402, normalised for expression

Sequence of fibronectin (FN) (P02751 32-2477): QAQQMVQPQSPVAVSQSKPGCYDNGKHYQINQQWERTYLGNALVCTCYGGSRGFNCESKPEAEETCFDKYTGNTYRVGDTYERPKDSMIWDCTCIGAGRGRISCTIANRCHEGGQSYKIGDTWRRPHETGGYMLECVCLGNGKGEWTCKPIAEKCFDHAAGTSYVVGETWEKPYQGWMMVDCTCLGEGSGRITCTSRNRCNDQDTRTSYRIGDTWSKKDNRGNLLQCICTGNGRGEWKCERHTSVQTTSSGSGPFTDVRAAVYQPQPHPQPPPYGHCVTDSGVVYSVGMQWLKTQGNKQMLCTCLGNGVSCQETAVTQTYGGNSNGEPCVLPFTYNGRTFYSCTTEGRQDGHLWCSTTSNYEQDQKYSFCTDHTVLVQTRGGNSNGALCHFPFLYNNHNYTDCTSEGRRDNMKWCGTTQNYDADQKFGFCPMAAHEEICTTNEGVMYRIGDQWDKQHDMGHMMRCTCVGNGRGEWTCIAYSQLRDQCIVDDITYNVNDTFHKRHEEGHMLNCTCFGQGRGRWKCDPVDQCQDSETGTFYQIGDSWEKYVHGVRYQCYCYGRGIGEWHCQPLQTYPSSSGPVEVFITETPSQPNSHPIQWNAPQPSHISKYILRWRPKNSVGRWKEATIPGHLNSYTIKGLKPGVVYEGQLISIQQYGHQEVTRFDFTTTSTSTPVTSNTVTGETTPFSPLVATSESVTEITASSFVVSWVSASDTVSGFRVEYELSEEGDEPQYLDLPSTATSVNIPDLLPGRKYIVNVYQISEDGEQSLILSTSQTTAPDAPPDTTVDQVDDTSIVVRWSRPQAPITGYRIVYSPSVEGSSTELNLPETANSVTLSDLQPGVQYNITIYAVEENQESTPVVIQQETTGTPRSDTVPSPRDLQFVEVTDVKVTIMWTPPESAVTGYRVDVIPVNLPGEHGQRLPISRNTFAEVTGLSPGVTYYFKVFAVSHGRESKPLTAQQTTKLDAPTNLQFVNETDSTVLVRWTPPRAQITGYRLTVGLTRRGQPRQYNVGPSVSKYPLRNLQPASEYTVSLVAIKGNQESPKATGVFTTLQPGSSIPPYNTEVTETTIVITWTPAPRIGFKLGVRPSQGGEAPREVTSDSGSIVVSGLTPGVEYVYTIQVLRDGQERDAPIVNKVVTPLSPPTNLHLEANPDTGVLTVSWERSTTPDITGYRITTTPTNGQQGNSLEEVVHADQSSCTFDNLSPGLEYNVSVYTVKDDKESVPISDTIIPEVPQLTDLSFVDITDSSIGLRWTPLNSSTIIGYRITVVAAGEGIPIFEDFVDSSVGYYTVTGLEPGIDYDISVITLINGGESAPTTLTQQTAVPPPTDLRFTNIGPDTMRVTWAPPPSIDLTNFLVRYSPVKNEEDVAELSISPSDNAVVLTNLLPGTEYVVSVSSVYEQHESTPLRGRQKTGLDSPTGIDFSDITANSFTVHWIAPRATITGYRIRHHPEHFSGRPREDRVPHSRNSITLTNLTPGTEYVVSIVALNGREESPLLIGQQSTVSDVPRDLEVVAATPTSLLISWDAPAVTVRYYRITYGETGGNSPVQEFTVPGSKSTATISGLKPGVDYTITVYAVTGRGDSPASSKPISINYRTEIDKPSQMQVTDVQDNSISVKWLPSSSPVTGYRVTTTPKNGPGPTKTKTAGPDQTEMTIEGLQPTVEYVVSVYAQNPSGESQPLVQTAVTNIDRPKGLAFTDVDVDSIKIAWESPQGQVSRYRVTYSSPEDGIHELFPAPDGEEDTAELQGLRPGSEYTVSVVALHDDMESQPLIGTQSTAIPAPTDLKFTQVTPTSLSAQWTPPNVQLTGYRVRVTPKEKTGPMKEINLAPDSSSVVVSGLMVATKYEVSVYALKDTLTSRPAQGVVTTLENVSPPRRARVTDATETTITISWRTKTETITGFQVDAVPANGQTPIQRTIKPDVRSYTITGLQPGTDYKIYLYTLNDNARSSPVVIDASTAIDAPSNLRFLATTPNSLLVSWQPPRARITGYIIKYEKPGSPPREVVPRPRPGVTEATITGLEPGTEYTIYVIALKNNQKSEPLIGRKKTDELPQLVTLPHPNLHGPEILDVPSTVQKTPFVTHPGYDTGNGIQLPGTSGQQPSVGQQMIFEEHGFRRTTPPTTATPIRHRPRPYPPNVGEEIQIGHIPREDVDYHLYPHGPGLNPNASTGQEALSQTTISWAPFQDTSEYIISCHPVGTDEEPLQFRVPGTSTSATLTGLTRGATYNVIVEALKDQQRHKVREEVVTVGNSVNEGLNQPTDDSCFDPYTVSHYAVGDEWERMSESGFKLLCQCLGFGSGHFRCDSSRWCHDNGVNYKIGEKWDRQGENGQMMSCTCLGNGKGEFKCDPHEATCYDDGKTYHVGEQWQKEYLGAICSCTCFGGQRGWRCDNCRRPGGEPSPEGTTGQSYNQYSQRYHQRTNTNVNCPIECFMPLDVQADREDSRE

| binding capacity of the wild type | binding compared to wild type TG2 | Substance |
| --- | --- | --- |
| 40% |  | N-terminal deletion product of TG2 (Δ1-15) (from UniProt P21980 16-687) (enzyme) |
|  | 50% | TG2 FN binding site mutant (D94A, D97A) (from UniProt P21980 2-687) (enzyme) |
